From the supplement of paper PMC12042874
± gives the uncertainty stated by the source.

experiment: amyloid nucleation score (Sup35N fusion, yeast selection) (log enrichment); library NNK2; higher = more nucleation; inactive = no reads after selection
In short: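 Nucleation score: DiMSum log enrichment of output over input reads, centred on the mode score of non-aggregating sequences. Only sequences with at least 100 input reads were kept. Reads came from Illumina sequencing of plasmid inserts before and after 7 days of growth at 30°C without adenine and uracil, in psi-negative yeast expressing Sup35N fused to peptides of 20 random codons after 24 hours of induction with 100 μM copper sulfate.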

| Substance | amyloid nucleation score |
| --- | --- |
| VYTFK | 0.667 ± 0.66 |
| VYTRKCGLAFRVSSGT | 0.574 ± 0.5 |
| VYTRMKITVGFKYLYN | 1.24 ± 0.45 |
| VYTTLPYSFGGYNCYMSSRL | inactive |
| VYWCLITFNHEDAHSYCFL | 2.22 ± 0.26 |
| VYYGVYLMSCFVAGGYFYCF | 3.75 ± 0.061 |
| VYYIYQLEWSDVFFSAYGVH | -0.072 ± 0.76 |
| VYYLDSV | 0.978 ± 0.74 |
| VYYLVSLGLT | 1.91 ± 0.14 |
| VYYSNTTTRSCSEMQVVFFF | -1.13 ± 0.41 |
| WALYVGGANRFFMCQWVNLG | 2.26 ± 0.13 |
| WATFRPD | 0.31 ± 0.54 |
| WCAPWPWVKCLFTSPVFSVV | 0.712 ± 0.4 |
| WCLMVGFMFMCRYDGNQSDG | 2.98 ± 0.051 |
| WCRWMGMH | 0.543 ± 0.47 |
| WCSVLRDNKLSR | -1.09 ± 0.45 |
| WCWLEYCCTIDSLIFLFEN | 4.09 ± 0.12 |
| WDLLRVM | 0.312 ± 0.8 |
| WDNLNDFHN | -1.35 ± 1.1 |
| WDNWDPVAAP | inactive |
| WDYVQVCPNLLVRTLLFMFA | -0.81 ± 0.32 |
| WEASSFKVSGLSGSHHPSKG | 2.3 ± 0.13 |
| WEIRNAYVQVT | -0.178 ± 0.39 |
| WEITLVNGSWVLESRTQRHF | 4.06 ± 0.079 |
| WFAGFMCRVLACTFSALKLS | -0.917 ± 0.78 |

| Substance | amyloid nucleation score |
| --- | --- |
| WFFFFNGPAYVFNLNIVNFS | 7.035 ± 0.06 |
| WFGYMALPR | 4.63 ± 0.064 |
| WFISPKDKGRASIHLNEYRW | 3.97 ± 0.045 |
| WFMERVFYNSTNSTQLFEWV | inactive |
| WFYKVSSA | -0.481 ± 0.55 |
| WFYNVATYTHVAANTRVMKC | 0.231 ± 0.44 |
| WGAEILAHVGPSHEYSR | -0.175 ± 0.49 |
| WGCCGDLVYAIS | 0.194 ± 0.62 |
| WGRLGARCYRRILVPGRCLE | -0.756 ± 0.48 |
| WGRWAVSFYGLREDSLLSLG | -0.324 ± 0.53 |
| WGSGNGLVGLHYLASLFERN | 0.847 ± 0.58 |
| WGSISNIFYLLRVLYCLSMS | 1.79 ± 0.26 |
| WGTCMCRKWASHFDREC | 2.55 ± 0.17 |
| WGVFWLPH | -0.807 ± 0.56 |
| WGWEIFIVWTWLRGVILYVL | -0.602 ± 1.1 |
| WHEWCEGCGRNCSWEVGQDR | 0.435 ± 0.23 |
| WHFSRSWDPKFWRRAHSWWE | 0.276 ± 0.5 |
| WIITNCSLFFSVALS | 6.79 ± 0.085 |
| WILVGFIIGTKWVSRPTTDC | 3.61 ± 0.056 |
| WIVRFSGCCDVGWTSGVRSY | 6.17 ± 0.075 |
| WIYIIVSPFMRWLESSLLSA | inactive |
| WLGRCVNNNLNDVCDFQT | -1.17 ± 0.39 |
| WLKYMSCSLAKSQVSACVSV | 0.219 ± 0.46 |
| WLLKFSVGLNFFSEFNVLRC | -1.43 ± 0.75 |
| WLLVDYAASCRGKWCHEMHG | 0.284 ± 0.19 |

| Substance | amyloid nucleation score |
| --- | --- |
| WLLVYYISARVQQSADNKRW | -1.02 ± 1 |
| WLPKVWLRVRWFNEEKRDGG | -0.123 ± 0.54 |
| WLVKLSGDMF | 2.54 ± 0.073 |
| WLYDPSIMWNIGWVSNMMHQ | -0.454 ± 0.24 |
| WLYLFKGWSNLDSESFTMTS | -0.943 ± 0.78 |
| WMCRSTAMIHSRSDCV | 6.328 ± 0.052 |
| WNAALKYKAHVGIDVSRCVP | 0.535 ± 0.33 |
| WPNFV | -0.995 ± 0.76 |
| WQRMDGIGELILMCCRYSFL | 5.819 ± 0.033 |
| WQSSSILIASSCVRSPGLPV | 0.27 ± 0.46 |
| WQYFFGMYNPSGGRRPGISG | -0.373 ± 1 |
| WRAKAFSEKFIERRWDVGMN | -1.18 ± 0.62 |
| WRALPKYGYCLSLGVYEETR | -0.102 ± 0.55 |
| WRIYQDTFCLSIS | 3.87 ± 0.076 |
| WRVSSSI | -0.706 ± 0.76 |
| WRYITCHS | 1.59 ± 0.55 |
| WSGKRAFNYINGGLGMAKEL | 4.11 ± 0.062 |
| WSLLEF | inactive |
| WSMKGFYL | inactive |
| WSNFVIMNVPANGAWNFRIR | -1.13 ± 0.76 |
| WSPIGSFRCCGWCSSHQVRI | 0.179 ± 0.57 |
| WSRADDRQWGPRLDNVVVMV | 0.83 ± 0.45 |
| WSVWVRDSGSRMS | 1.22 ± 0.13 |
| WTCVEVHAVYCFGSVDELVL | 8.556 ± 0.058 |
| WTCVGSYWSLHFAFSR | 4.25 ± 0.12 |

| Substance | amyloid nucleation score |
| --- | --- |
| WTLLNCRGSEVKIGRCTKMG | inactive |
| WTMMYCTNACYDRYICNYRA | -0.038 ± 1.1 |
| WTVRSARFWMSKQVVFSTTV | 0.812 ± 0.5 |
| WVACWTSLLYQVIVIIRGLN | 0.975 ± 0.38 |
| WVAKYLFSLEDHVSVRIVDI | 0.227 ± 0.56 |
| WVASSSKQRTHLCSGVKWSV | 0.539 ± 0.56 |
| WVCLYDVVICRIRLSDRENS | 0.713 ± 0.74 |
| WVDIPFW | -0.83 ± 1.1 |
| WVNIYADLRLKVVAGNCCNV | 3.38 ± 0.12 |
| WVVVDNHLS | -0.234 ± 0.65 |
| WVWRIRDCLIVSSTPTGMRV | 0.806 ± 0.27 |
| WVYLRVFAHKKRAALSWAYS | -0.077 ± 0.34 |
| WWCMLFNGEGGDCDILDFSS | -0.385 ± 0.49 |
| WWDRVRLFRYRLCGSKSLMS | 0.429 ± 0.38 |
| WWDTRRHVQCCSAEAIDFME | 1.3 ± 0.47 |
| WWFLIYLSSYRGNRCILVWF | -1.98 ± 0.44 |
| WWSARYRGTLD | 1.57 ± 0.24 |
| WWSKEREYWSLPVGWFMEAV | 0.085 ± 0.45 |
| WYALNYTIPEPYWT | 0.881 ± 0.48 |
| WYMKILFGKRFSFGGVVSIF | 3.74 ± 0.11 |
| WYMQGTLTAMGRGQTQYLSC | 0.405 ± 0.64 |
| WYSQVPERALRQWGFFSLGG | 0.397 ± 0.46 |
| WYYFYLFDACLSVSCWAIWY | -0.283 ± 1 |
| YAFRSYMKFIYFCSDFFSDR | -2.32 ± 0.75 |
| YALCLKALEFMVMGLPSSRM | -0.049 ± 0.76 |

| Substance | amyloid nucleation score |
| --- | --- |
| YALDL | 0.08 ± 0.55 |
| YALWFVIWEVGRGFLVVISF | inactive |
| YANDFLRLVHVWFREVIIKL | -0.398 ± 1 |
| YAPGVLLSSMNDMAEYKGGI | -0.14 ± 0.28 |
| YAQQIVVLVAGPWWSWTRRG | 0.791 ± 0.81 |
| YASYICIQHYCFFLAYYNML | inactive |
| YAVWLDMGFILIIACVGKYN | -0.747 ± 1.1 |
| YAYAEWERNRWRRDDNLNVE | -0.251 ± 0.38 |
| YCALWTTTE | 1.62 ± 0.18 |
| YCIKLRRYQNDKFWFNYTQV | 4.35 ± 0.086 |
| YCKFYWNHNVYCLVALWRLW | -0.149 ± 0.79 |
| YCLSIWIDLSFIFVIRVDSG | inactive |
| YCMCIFATLG | -0.398 ± 0.76 |
| YCRHIAVECSVGLHWHGGTV | 3.26 ± 0.15 |
| YCRMYSRNVDGVWHTISKLD | 0.108 ± 0.42 |
| YCVSPELDWTSIARGHTFNV | -0.509 ± 1.1 |
| YCWWRSWEPKILRCSLVLVK | 0.281 ± 0.44 |
| YDGFDITYSYDLSVVFCVDR | 0.046 ± 0.44 |
| YDHDLINRKITSGHKVYFIG | -0.586 ± 0.49 |
| YDPVAVF | -0.945 ± 0.43 |
| YDRDCTRPCSPSSRGNFRDE | inactive |
| YDSTVFTITWAKWDVYSLST | 2.36 ± 0.096 |
| YDVSFTFLWW | 0.242 ± 0.61 |
| YEGLF | inactive |
| YEPSATEPRLRRFHGEARLL | 0.32 ± 0.65 |

| Substance | amyloid nucleation score |
| --- | --- |
| YERMWCHLLVLRPNKQK | 0.697 ± 0.81 |
| YESHLCVFTCWTFRFLNVMD | -1.01 ± 1.1 |
| YEYVSYCVSDFRYLLQTV | 0.436 ± 0.66 |
| YFFSISWTCYFR | 3.27 ± 0.044 |
| YFLKSYGAFSMFQM | 3.19 ± 0.15 |
| YFLVKFSSNTFIVWTHRYFQ | 0.057 ± 1.1 |
| YFMVHIMGTVKIGRW | 3.13 ± 0.098 |
| YFNSLTQISSFRKFSRPLHS | 0.033 ± 0.38 |
| YFRAYWTCSEC | inactive |
| YFSWTWVVFNAFNEVRFWTW | -1.59 ± 0.61 |
| YFVFHDQKSTNLGWIFVFCR | 0.108 ± 0.65 |
| YFVGWCIYEVNAYISVPVVF | inactive |
| YFWFYTV | -0.691 ± 0.34 |
| YGAYVYINSFCKYNIIRSRS | 6.034 ± 0.043 |
| YGFCAFTHSC | -0.554 ± 1 |
| YGLAC | 2.44 ± 0.072 |
| YGMKTGVNIFVVDVEMVKRS | 5.93 ± 0.068 |
| YGPICEYFQGCEALSWWSTC | 0.39 ± 0.2 |
| YGPSCSICPVVVIPSF | inactive |
| YGRLECISWCPISIHCGGAR | 3.47 ± 0.11 |
| YGSSGK | -0.362 ± 0.38 |
| YGVYVRCYLDGSLWWNFTAW | inactive |
| YHCRSEVTCWLEYDG | 0.712 ± 0.28 |
| YHCVEYLGARL | 0.083 ± 0.63 |
| YHSFLWKINSCAVMMEDSTG | 0.811 ± 0.67 |

| Substance | amyloid nucleation score |
| --- | --- |
| YHYGNGVAWDMTRKPRHHFV | -0.243 ± 0.41 |
| YICSFYEADRSTRCFLIFFF | -1.23 ± 0.44 |
| YIFSSVNERLCPALNGWHLD | inactive |
| YILAFVILAMEAWHRV | 3.68 ± 0.086 |
| YILLWVYIHDGLAWSTLLDW | 0.757 ± 0.6 |
| YILNMFKETLDVLVLKRNCF | -1.18 ± 1.1 |
| YIMSFRY | -0.592 ± 0.79 |
| YINSMLSSYFDSLWEGSKSR | -0.109 ± 0.27 |
| YIPNDCTTRDCLTYMMSWMF | -0.077 ± 0.63 |
| YISCYCRSSFRMLSVVSDYR | 2.54 ± 0.077 |
| YISVKMRSGRTSTLSDCVKA | 3.83 ± 0.076 |
| YITFSDRLWTLLLWCRILWL | -0.002 ± 1 |
| YITYSREAETCIFVKGDFS | -0.153 ± 1.1 |
| YIVCYAVSGLVWSIGSHEGM | 1.86 ± 0.13 |
| YIWLDAYFTESGILYYLMIR | inactive |
| YIWYFKMEVDYVLMMYAVAG | 0.183 ± 1 |
| YIYETTLCYNTIPGL | -0.848 ± 0.29 |
| YKGQCSILLGRVRWDFSSSS | -1.02 ± 0.78 |
| YKHFSGFLDFQVPAFSGYVS | inactive |
